Results published in the RNAGym collection of RNA variant scans (doi:10.7554/elife.80360).

B1: Hammerhead Ribozyme (parent)
chain: ACCGGAUGUGCUUUCCGGUCUGAUGAGUCCGUGAGGACGAAACAG

Variants of: B1
Assay: self-cleavage, relative activity (ratio to wild type); higher = more cleavage; co-transcriptional

Variant | self-cleavage
A6G A42U | 0.219
A6G A42C | 0.268
A6G A42G | 0.275
A6G A37C | 0.656
A6G A37U | 0.44
A6G A37G | 0.674
A6U A26U | 0.588
A6U A26G | 0.291
A6U A26C | 0.393
A6G A40G | 0.213
A6G A40C | 0.355
A6G A40U | 0.247
A6G C29A | 0.36
A6G C29U | 0.89
A6G C29G | 0.498
A6G U9C | 0.834
A6G U9A | 0.796
A6G U9G | 1.09
A6C C43A | 0.287
A6C C43G | 0.294
A6C C43U | 0.429

Variant | self-cleavage
A6C C29G | 0.482
A6C C29A | 0.44
A6C C29U | 0.695
A6G G17C | 0.494
A6G G17U | 0.393
A6G G17A | 0.389
A6C C11U | 0.592
A6C C11A | 0.669
A6C C11G | 0.958
A6G U19C | 0.486
A6G U19G | 0.264
A6G U19A | 0.278
A6C C15U | 0.659
A6C C15A | 0.761
A6C C15G | 0.559
A6G U28G | 0.461
A6G U28C | 0.792
A6G U28A | 0.468
A6U A34U | 0.631
A6U A34C | 0.651
A6U A34G | 0.786

Variant | self-cleavage
A6C U21C | 0.389
A6C U21G | 0.415
A6C U21A | 0.475
A6U U7G | 0.829
A6U U7C | 0.356
A6U U7A | 0.609
A6C U7G | 0.392
A6C U7C | 0.577
A6C U7A | 0.311
A6U A42G | 0.307
A6U A42C | 0.238
A6U A42U | 0.241
A6C C30U | 0.51
A6C C30G | 0.437
A6C C30A | 0.588
A6U U32A | 0.605
A6U U32C | 0.988
A6U U32G | 0.559
A6U G27C | 0.552
A6U G27A | 0.614
A6U G27U | 0.395

Variant | self-cleavage
A6U G33A | 0.793
A6U G33U | 0.403
A6U G33C | 0.551
A6U C30U | 0.743
A6U C30A | 0.649
A6U C30G | 0.525
A6G G18C | 0.351
A6G G18U | 0.468
A6G G18A | 0.486
A6U G35U | 0.499
A6U G35C | 0.473
A6U G35A | 0.505
A6C U24G | 0.511
A6C U24C | 0.387
A6C U24A | 0.707
A6C A44C | 0.391
A6C A44G | 1.06
A6C A44U | 0.36
A6C U13G | 0.673
A6C U13A | 0.906
A6C U13C | 0.598
